The values that follow come from the supplement of paper PMC5998384.

Data set [1] concerns HeLa Kyoto. Description: solubility in G1/S (NP-40 vs SDS abundance) (log2 ratio); higher = more soluble. As to conditions: cell cycle stage: G1/S.
Data set [2] concerns HeLa Kyoto. Put plainly: melting temperature (median over replicates), in situ; higher = more thermally stable.
Data set [3] deals with HeLa Kyoto. Put plainly: solubility change mitosis vs G1/S (difference of NP-40 vs SDS log2 ratios) (log2 ratio difference); higher = more soluble in mitosis.
The subject of data set [4] is HeLa Kyoto. Put plainly: thermal stability score vs G1/S (z-score of summed log2 fold changes over temperatures); higher = more thermally stable than in G1/S.
Setting [5] is: cell cycle stage: early G1 (4.5 h after nocodazole release).
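Throughout, for melting temperature (median over replicates), in situ: HeLa Kyoto cells synchronized by double thymidine or nocodazole block, proteins quantified by TMT10plex mass spectrometry, three independent biological replicates.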
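Throughout, for solubility change mitosis vs G1/S (difference of NP-40 vs SDS log2 ratios): synchronized HeLa Kyoto cells (double thymidine block for G1/S, nocodazole release for mitosis), protein amounts in NP-40 versus SDS lysates quantified by mass spectrometry, three biological replicates.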
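Throughout, for solubility in G1/S (NP-40 vs SDS abundance): HeLa Kyoto cells arrested at G1/S by double thymidine block, proteins quantified by TMT10plex mass spectrometry in mild NP-40 versus SDS extracts, three biological replicates.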
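Throughout, for thermal stability score vs G1/S (z-score of summed log2 fold changes over temperatures): synchronized HeLa Kyoto cells, proteins quantified by TMT10plex mass spectrometry, three biological replicates, mitosis taken 0.5 h after nocodazole release, G1/S directly after double thymidine block.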

As for “MSLEDPFFVVRGEVQKAVNTARGLYQRWCELLQESAAVGREELDWTTNELRNGLRSIEWDLEDLEETIGIVEANPGKFKLPAGDLQERKVFVERMREAVQEMKDHMVSPTAVAFLERNNREILAGKPAAQKSPSDLLDASAVSATSRYIEEQQATQQLIMDEQDQQLEMVSGSIQVLKHMSGRVGEELDEQGIMLDAFAQEMDHTQSRMDGVLRKLAKVSHMTSDRRQWCAIAVLVGVLLLVLILLFSL [STX10]”, the “solubility in G1/S (log2)” value in the data set on HeLa Kyoto [1] was -0.293. The melting temperature with HeLa Kyoto [2] (cell cycle stage: G1/S) turned out to be 52.1 °C; in the data set with HeLa Kyoto [2] (cell cycle stage: mitosis), 51.6 °C. Also, the “solubility change mitosis (log2)” value in the data set with HeLa Kyoto [3] was -0.107. Also, the thermal stability score was found to be 2.01 in the data set on HeLa Kyoto [4] (setting [5]) and 0.0715 with HeLa Kyoto [4] (cell cycle stage: mitosis).
Turning to “MVPSSPAVEKQVPVEPGPDPELRSWRHLVCYLCFYGFMAQIRPGESFITPYLLGPDKNFTREQVTNEITPVLSYSYLAVLVPVFLLTDYLRYTPVLLLQGLSFVSVWLLLLLGHSVAHMQLMELFYSVTMAARIAYSSYIFSLVRPARYQRVAGYSRAAVLLGVFTSSVLGQLLVTVGRVSFSTLNYISLAFLTFSVVLALFLKRPKRSLFFNRDDRGRCETSASELERMNPGPGGKLGHALRVACGDSVLARMLRELGDSLRRPQLRLWSLWWVFNSAGYYLVVYYVHILWNEVDPTTNSARVYNGAADAASTLLGAITSFAAGFVKIRWARWSKLLIAGVTATQAGLVFLLAHTRHPSSIWLCYAAFVLFRGSYQFLVPIATFQIASSLSKELCALVFGVNTFFATIVKTIITFIVSDVRGLGLPVRKQFQLYSVYFLILSIIYFLGAMLDGLRHCQRGHHPRQPPAQGLRSAAEEKAAQALSVQDKGLGGLQPAQSPPLSPEDSLGAVGPASLEQRQSDPYLAQAPAPQAAEFLSPVTTPSPCTLCSAQASGPEAADETCPQLAVHPPGVSKLGLQCLPSDGVQNVNQ [SLC19A1]”, the “solubility in G1/S (log2)” value with HeLa Kyoto [1] was determined as 0.075. The melting temperature with HeLa Kyoto [2] (cell cycle stage: G1/S) was found to be 57 °C; in the data set on HeLa Kyoto [2] (cell cycle stage: mitosis), 54.9 °C. Moreover, the “solubility change mitosis (log2)” value in the data set on HeLa Kyoto [3] is -0.0504. Moreover, the thermal stability score in the data set with HeLa Kyoto [4] (setting [5]) is -3.67; in the data set on HeLa Kyoto [4] (cell cycle stage: mitosis) it was -3.7.
Consider “MLGARAWLGRVLLLPRAGAGLAASRRGSSSRDKDRSATVSSSVPMPAGGKGSHPSSTPQRVPNRLIHEKSPYLLQHAYNPVDWYPWGQEAFDKARKENKPIFLSVGYSTCHWCHMMEEESFQNEEIGRLLSEDFVSVKVDREERPDVDKVYMTFVQATSSGGGWPMNVWLTPNLQPFVGGTYFPPEDGLTRVGFRTVLLRIREQWKQNKNTLLENSQRVTTALLARSEISVGDRQLPPSAATVNNRCFQQLDEGYDEEYGGFAEAPKFPTPVILSFLFSYWLSHRLTQDGSRAQQMALHTLKMMANGGIRDHVGQGFHRYSTDRQWHVPHFEKMLYDQAQLAVAYSQAFQLSGDEFYSDVAKGILQYVARSLSHRSGGFYSAEDADSPPERGQRPKEGAYYVWTVKEVQQLLPEPVLGATEPLTSGQLLMKHYGLTEAGNISPSQDPKGELQGQNVLTVRYSLELTAARFGLDVEAVRTLLNSGLEKLFQARKHRPKPHLDSKMLAAWNGLMVSGYAVTGAVLGQDRLINYATNGAKFLKRHMFDVASGRLMRTCYTGPGGTVEHSNPPCWGFLEDYAFVVRGLLDLYEASQESAWLEWALRLQDTQDKLFWDSQGGGYFCSEAELGAGLPLRLKDDQDGAEPSANSVSAHNLLRLHGFTGHKDWMDKCVCLLTAFSERMRRVPVALPEMVRALSAQQQTLKQIVICGDRQAKDTKALVQCVHSVYIPNKVLILADGDPSSFLSRQLPFLSTLRRLEDQATAYVCENQACSVPITDPCELRKLLHP [SPATA20]”, for which the “solubility in G1/S (log2)” value in the data set on HeLa Kyoto [1] is 0.267. In addition, the melting temperature with HeLa Kyoto [2] (cell cycle stage: G1/S) stood at 51.6 °C; in the data set on HeLa Kyoto [2] (cell cycle stage: mitosis), 52.6 °C. The “solubility change mitosis (log2)” value in the data set with HeLa Kyoto [3] is -0.304. Moreover, the thermal stability score in the data set with HeLa Kyoto [4] (setting [5]) came out at 0.594; in the data set with HeLa Kyoto [4] (cell cycle stage: mitosis) it was 0.85.
Consider “MMEESGIETTPPGTPPPNPAGLAATAMSSTPVPLAATSSFSSPNVSSMESFPPLAYSTPQPPLPPVRPSAPLPFVPPPAVPSVPPLVTSMPPPVSPSTAAAFGNPPVSHFPPSTSAPNTLLPAPPSGPPISGFSVGSTYDITRGHAGRAPQTPLMPSFSAPSGTGLLPTPITQQASLTSLAQGTGTTSAITFPEEQEDPRITRGQDEASAGGIWGFIKGVAGNPMVKSVLDKTKHSVESMITTLDPGMAPYIKSGGELDIVVTSNKEVKVAAVRDAFQEVFGLAVVVGEAGQSNIAPQPVGYAAGLKGAQERIDSLRRTGVIHEKQTAVSVENFIAELLPDKWFDIGCLVVEDPVHGIHLETFTQATPVPLEFVQQAQSLTPQDYNLRWSGLLVTVGEVLEKSLLNVSRTDWHMAFTGMSRRQMIYSAARAIAGMYKQRLPPRTV [PRRC1]”, for which the “solubility in G1/S (log2)” value in the data set with HeLa Kyoto [1] is 0.495. For the same substance, the melting temperature in the data set with HeLa Kyoto [2] (cell cycle stage: G1/S) turned out to be 58.8 °C; with HeLa Kyoto [2] (cell cycle stage: mitosis), 58 °C. In addition, in the data set on HeLa Kyoto [3], the “solubility change mitosis (log2)” value was -0.346. The thermal stability score in the data set with HeLa Kyoto [4] (setting [5]) was -1.27; in the data set on HeLa Kyoto [4] (cell cycle stage: mitosis) it was -1.08.
For the substance BTAF1, the “solubility in G1/S (log2)” value in the data set on HeLa Kyoto [1] was -0.142. Besides, the melting temperature was determined as 50 °C in the data set on HeLa Kyoto [2] (cell cycle stage: G1/S) and 50.1 °C in the data set with HeLa Kyoto [2] (cell cycle stage: mitosis). In addition, in the data set with HeLa Kyoto [3], the “solubility change mitosis (log2)” value is -0.118. For the same substance, the thermal stability score in the data set with HeLa Kyoto [4] (setting [5]) was 0.553; in the data set with HeLa Kyoto [4] (cell cycle stage: mitosis), 1.71.
With “MASKCPKCDKTVYFAEKVSSLGKDWHKFCLKCERCSKTLTPGGHAEHDGKPFCHKPCYATLFGPKGVNIGGAGSYIYEKPLAEGPQVTGPIEVPAARAEERKASGPPKGPSRASSVTTFTGEPNTCPRCSKKVYFAEKVTSLGKDWHRPCLRCERCGKTLTPGGHAEHDGQPYCHKPCYGILFGPKGVNTGAVGSYIYDRDPEGKVQP [CRIP2]”, the “solubility in G1/S (log2)” value in the data set on HeLa Kyoto [1] was 0.608. For the same substance, the melting temperature with HeLa Kyoto [2] (cell cycle stage: G1/S) was determined as 55 °C; in the data set with HeLa Kyoto [2] (cell cycle stage: mitosis) it was 53.2 °C. Besides, the “solubility change mitosis (log2)” value with HeLa Kyoto [3] is 0.0882. Moreover, the thermal stability score is -3.58 in the data set on HeLa Kyoto [4] (setting [5]) and -3.7 in the data set with HeLa Kyoto [4] (cell cycle stage: mitosis).
Regarding “MSAYPKSYNPFDDDGEDEGARPAPWRDARDLPDGPDAPADRQQYLRQEVLRRAEATAASTSRSLALMYESEKVGVASSEELARQRGVLERTEKMVDKMDQDLKISQKHINSIKSVFGGLVNYFKSKPVETPPEQNGTLTSQPNNRLKEAISTSKEQEAKYQASHPNLRKLDDTDPVPRGAGSAMSTDAYPKNPHLRAYHQKIDSNLDELSMGLGRLKDIALGMQTEIEEQDDILDRLTTKVDKLDVNIKSTERKVRQL [SNAP29]”, the “solubility in G1/S (log2)” value in the data set on HeLa Kyoto [1] came out at 0.394. For the same substance, the melting temperature in the data set on HeLa Kyoto [2] (cell cycle stage: G1/S) and with HeLa Kyoto [2] (cell cycle stage: mitosis) was 52.7 °C in each case. Also, in the data set on HeLa Kyoto [3], the “solubility change mitosis (log2)” value was 0.314. The thermal stability score in the data set on HeLa Kyoto [4] (setting [5]) is -4.76; in the data set on HeLa Kyoto [4] (cell cycle stage: mitosis), -2.04.
With “MATANGAVENGQPDRKPPALPRPIRNLEVKFTKIFINNEWHESKSGKKFATCNPSTREQICEVEEGDKPDVDKAVEAAQVAFQRGSPWRRLDALSRGRLLHQLADLVERDRATLAALETMDTGKPFLHAFFIDLEGCIRTLRYFAGWADKIQGKTIPTDDNVVCFTRHEPIGVCGAITPWNFPLLMLVWKLAPALCCGNTMVLKPAEQTPLTALYLGSLIKEAGFPPGVVNIVPGFGPTVGAAISSHPQINKIAFTGSTEVGKLVKEAASRSNLKRVTLELGGKNPCIVCADADLDLAVECAHQGVFFNQGQCCTAASRVFVEEQVYSEFVRRSVEYAKKRPVGDPFDVKTEQGPQIDQKQFDKILELIESGKKEGAKLECGGSAMEDKGLFIKPTVFSEVTDNMRIAKEEIFGPVQPILKFKSIEEVIKRANSTDYGLTAAVFTKNLDKALKLASALESGTVWINCYNALYAQAPFGGFKMSGNGRELGEYALAEYTEVKTVTIKLGDKNP [ALDH1A3]”, in the data set with HeLa Kyoto [1], the “solubility in G1/S (log2)” value was 0.122. For the same substance, the melting temperature with HeLa Kyoto [2] (cell cycle stage: G1/S) stood at 55.4 °C; with HeLa Kyoto [2] (cell cycle stage: mitosis), 57.5 °C. Further, the “solubility change mitosis (log2)” value in the data set on HeLa Kyoto [3] is -0.0783. The thermal stability score in the data set with HeLa Kyoto [4] (setting [5]) is -0.893; in the data set with HeLa Kyoto [4] (cell cycle stage: mitosis), -0.266.
